Assay results from the supplement of paper PMC9170038.

These sequences were tested on MS2 coat protein (assay: apparent KD of MS2 coat protein; higher = weaker reporter binding). Conditions: Eterna round: R107; input ligand: theophylline 20 uM.
In short: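 On-chip transcription from Illumina sequencing clusters produced the designed RNA switches. These were titrated with SNAP-549-labelled MS2 coat protein (twofold steps, 0.7 or 1.5 nM to 3 µM) in 100 mM Tris-HCl pH 7.5, 80 mM KCl, 4 mM MgCl2, with or without constant ligand. The apparent KD given is the per-design median of normalised cluster binding-curve fits.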

Compared with “CGACGAGACCUGGAUACCAGCGACAUGAGGAUCACCCAUGUAUGUGGAUCAGCCAUGAUAUGCCCUUGGCAGCCACCGAGGUCGG [PPPMULLIN]”, “AUCCAUAGCCGAAGGAGCGCAGUAGGAUGACAUGAGGAUCACCCAUGUGUGUGAUGUGGAUUGCAGGUAGGUCGCGGAGUGGGAU [Exclusion - Arginine B (Freestyle 6)]” is 6.5-fold higher in “apparent KD of MS2 coat protein” value: 20.8 nM for the first, 135 nM for the second.

Compared with “AACAUGAGGAUCACCCAUGUCAUGUUGGAUACCAGCCAAUAAUAAGGCCCUUGGCAGCUAUAGAUCGAUGAUCCAUGAGGAUCAC [Exclusion Theophylline A]”, “UGGGUCGGAUGAGGAAAUUGUCCGACGUAUCGAGGACCGGUACGGCCGCCACUCGGUUGUACAUGAGGAUCACCCAUGUCAGGGU [#1 Same State - Tryptophan A Attempt #15 (HarryS)]” is 5.4-fold higher in “apparent KD of MS2 coat protein” value: 49.4 nM for the first, 269 nM for the second.

Compared with “ACAUGAGGAUCACCCAUGUGAAGCAGGGUACGAGGACCGGUACGGCCGCCACUCGAGGAUUAUACCGAGUGAAUGGCAACGAUGU [whbob_Ex_trypto A_2s18]”, “UAUAUAUAUCACUAACUGUUCUUGAGGUCUCGAGGACCGGUACGGCCGCCACUCGUACCGCCUCACAUGAGGAUCACCCAUGUCC [XTryp A #1]” is 3.9-fold higher in “apparent KD of MS2 coat protein” value: 21.8 nM for the first, 85.5 nM for the second.

Going from “UGUAAUGGGAUCAACCCAUGAGAGUCUGAAGGAGCGAUCGUAAGAUCAGGUAGGUCGCGGGAGACAUGAGGAUCACCCAUGUAUA [#23 Exclusion - Arginine A]” to “AAUUAUCAGUCGGCCGCCACUGACACAUGAGGAUCACCCAUGUAACUUGGGUUAAAUUUACUGAACAGGACCGGGACAAAGGCUA [JR_ExcTryptoB_Sub009]”, the “apparent KD of MS2 coat protein” value rises from 46.3 nM to 193 nM (4.2-fold).

Same assay, conditions: Eterna round: R107; input ligand: theophylline 2 mM

Going from “UAUCCACAUGAGGAUCACCCAUGUAGGGAAGGAGCGGUGGAUGCACCAGGUAGGUCGCCUUGCUGAGGACAGCCGGUGGAUUCGU [Exclusion - Arginine A (Freestyle 27)]” to “UUUAACGGGCACGAUACCAGCGACAUGAGGAUCACCCAUGUAAACGCGGUGACGGUCUGUUGCCCUUGGCAGCGUGCAAAAUAAU [Zaquarar]”, the “apparent KD of MS2 coat protein” value rises from 46.7 nM to 94.3 nM (2-fold).

Compared with “ACAUGAGGAUCACCCAUGUUUGUUGUUCCUCGAGGACCGGUACGGCCGCCACUCGAACGAGUGGCACGCGAGUGCGCACUCGCGU [aPa]”, “AUACGUAACAGAAGGAGCGCACCGACAUGAGGAUCACCCAUGUGGGAUGGGACUCUUUUGGUGCAGGUAGGUCGCUGUCACGCAU [Beatattian]” is 4.7-fold higher in “apparent KD of MS2 coat protein” value: 13.1 nM for the first, 61.2 nM for the second.

Compared with “AGAAUAUAGUCGGCCGCCACUCUACAUACAUGAGGAUCACCCAUGUUUACAUAGUGGAAACACAUGAGGACCGGGACAUAGGCAU [#16 Same State - Tryptophan B]”, “CGACGAGACCUGGAUACCAGCGACAUGAGGAUCACCCAUGUAUGUGGAUCAGCCAUGAUAUGCCCUUGGCAGCCACCGAGGUCGG [PPPMULLIN]” is 2.9-fold higher in “apparent KD of MS2 coat protein” value: 11 nM for the first, 31.7 nM for the second.

Compared with “AUCCAUAGCCGAAGGAGCGCAGUAGGAUGACAUGAGGAUCACCCAUGUGUGUGAUGUGGAUUGCAGGUAGGUCGCGGAGUGGGAU [Exclusion - Arginine B (Freestyle 6)]”, “UGGGUCGGAUGAGGAAAUUGUCCGACGUAUCGAGGACCGGUACGGCCGCCACUCGGUUGUACAUGAGGAUCACCCAUGUCAGGGU [#1 Same State - Tryptophan A Attempt #15 (HarryS)]” is 5.2-fold higher in “apparent KD of MS2 coat protein” value: 63 nM for the first, 327 nM for the second.

Going from “ACAUGAGGAUCACCCAUGUGAAGCAGGGUACGAGGACCGGUACGGCCGCCACUCGAGGAUUAUACCGAGUGAAUGGCAACGAUGU [whbob_Ex_trypto A_2s18]” to “UAUAUAUAUCACUAACUGUUCUUGAGGUCUCGAGGACCGGUACGGCCGCCACUCGUACCGCCUCACAUGAGGAUCACCCAUGUCC [XTryp A #1]”, the “apparent KD of MS2 coat protein” value rises from 17.8 nM to 97.6 nM (5.5-fold).

Compared with “UGUAAUGGGAUCAACCCAUGAGAGUCUGAAGGAGCGAUCGUAAGAUCAGGUAGGUCGCGGGAGACAUGAGGAUCACCCAUGUAUA [#23 Exclusion - Arginine A]”, “AAUUAUCAGUCGGCCGCCACUGACACAUGAGGAUCACCCAUGUAACUUGGGUUAAAUUUACUGAACAGGACCGGGACAAAGGCUA [JR_ExcTryptoB_Sub009]” is 4.6-fold higher in “apparent KD of MS2 coat protein” value: 44.3 nM for the first, 203 nM for the second.

Same assay, conditions: Eterna round: R107; input ligand: tryptophan 2.4 mM

“UAUCCACAUGAGGAUCACCCAUGUAGGGAAGGAGCGGUGGAUGCACCAGGUAGGUCGCCUUGCUGAGGACAGCCGGUGGAUUCGU [Exclusion - Arginine A (Freestyle 27)]” and “UUUAACGGGCACGAUACCAGCGACAUGAGGAUCACCCAUGUAAACGCGGUGACGGUCUGUUGCCCUUGGCAGCGUGCAAAAUAAU [Zaquarar]” are within 1.5-fold of each other in “apparent KD of MS2 coat protein” value: 32.8 nM for the first, 48.5 nM for the second.

First: UCACAUGAGGAUCACCCAUGUACAGGCGAUACCAGCCGUACAUUGGGCCCUUGGCAGCGCAUCGAGACCUUUAUAAGCACCUCGG [Ceusbi]
Second: ACAUGAGGAUCACCCAUGUUUGUUGUUCCUCGAGGACCGGUACGGCCGCCACUCGAACGAGUGGCACGCGAGUGCGCACUCGCGU [aPa]
The “apparent KD of MS2 coat protein” value of the first is 6.3-fold higher: 81.6 nM for the first, 13 nM for the second.

Going from “AUACGUAACAGAAGGAGCGCACCGACAUGAGGAUCACCCAUGUGGGAUGGGACUCUUUUGGUGCAGGUAGGUCGCUGUCACGCAU [Beatattian]” to “AGAAUAUAGUCGGCCGCCACUCUACAUACAUGAGGAUCACCCAUGUUUACAUAGUGGAAACACAUGAGGACCGGGACAUAGGCAU [#16 Same State - Tryptophan B]”, the “apparent KD of MS2 coat protein” value falls from 40.3 nM to 9.98 nM (4-fold).

Compared with “ACAUUAGUUGGCGAUACCAGCUAUAGGCCUUCUGGGCGACAUGAGGAUCACCCAUGUGAUGGCCCUUGGCAGCGCUGAUUGAUGU [SSTheo B #29]”, “AGACAUGAGGAUCACCCAUGUAGUAUGGAUACCAGAUCCAGAUUUAUCCCUUGGCAGCUGUGGUACAGCGAUGGAUCGCUCCUAG [Exclusion - Theophylline A (Freestyle 11)]” is 6.5-fold lower in “apparent KD of MS2 coat protein” value: 182 nM for the first, 28 nM for the second.

Going from “CGACGAGACCUGGAUACCAGCGACAUGAGGAUCACCCAUGUAUGUGGAUCAGCCAUGAUAUGCCCUUGGCAGCCACCGAGGUCGG [PPPMULLIN]” to “AUCCAUAGCCGAAGGAGCGCAGUAGGAUGACAUGAGGAUCACCCAUGUGUGUGAUGUGGAUUGCAGGUAGGUCGCGGAGUGGGAU [Exclusion - Arginine B (Freestyle 6)]”, the “apparent KD of MS2 coat protein” value rises from 12.3 nM to 47.2 nM (3.8-fold).

Compared with “AACAUGAGGAUCACCCAUGUCAUGUUGGAUACCAGCCAAUAAUAAGGCCCUUGGCAGCUAUAGAUCGAUGAUCCAUGAGGAUCAC [Exclusion Theophylline A]”, “UGGGUCGGAUGAGGAAAUUGUCCGACGUAUCGAGGACCGGUACGGCCGCCACUCGGUUGUACAUGAGGAUCACCCAUGUCAGGGU [#1 Same State - Tryptophan A Attempt #15 (HarryS)]” is 3.9-fold higher in “apparent KD of MS2 coat protein” value: 33.1 nM for the first, 128 nM for the second.

First: ACAUGAGGAUCACCCAUGUGAAGCAGGGUACGAGGACCGGUACGGCCGCCACUCGAGGAUUAUACCGAGUGAAUGGCAACGAUGU [whbob_Ex_trypto A_2s18]
Second: UGUAAUGGGAUCAACCCAUGAGAGUCUGAAGGAGCGAUCGUAAGAUCAGGUAGGUCGCGGGAGACAUGAGGAUCACCCAUGUAUA [#23 Exclusion - Arginine A]
The “apparent KD of MS2 coat protein” value of the first is 2.6-fold lower: 15.2 nM for the first, 39.7 nM for the second.
